Assay results as given in paper PMC12667553 (2025).

Molecular target: His6-tagged YAP, purified (immobilised in BLI) (UniProt P46937 1-504)
Assay: BLI

His6-tagged YAP, purified (immobilised in BLI), sequence (P46937 whole entry): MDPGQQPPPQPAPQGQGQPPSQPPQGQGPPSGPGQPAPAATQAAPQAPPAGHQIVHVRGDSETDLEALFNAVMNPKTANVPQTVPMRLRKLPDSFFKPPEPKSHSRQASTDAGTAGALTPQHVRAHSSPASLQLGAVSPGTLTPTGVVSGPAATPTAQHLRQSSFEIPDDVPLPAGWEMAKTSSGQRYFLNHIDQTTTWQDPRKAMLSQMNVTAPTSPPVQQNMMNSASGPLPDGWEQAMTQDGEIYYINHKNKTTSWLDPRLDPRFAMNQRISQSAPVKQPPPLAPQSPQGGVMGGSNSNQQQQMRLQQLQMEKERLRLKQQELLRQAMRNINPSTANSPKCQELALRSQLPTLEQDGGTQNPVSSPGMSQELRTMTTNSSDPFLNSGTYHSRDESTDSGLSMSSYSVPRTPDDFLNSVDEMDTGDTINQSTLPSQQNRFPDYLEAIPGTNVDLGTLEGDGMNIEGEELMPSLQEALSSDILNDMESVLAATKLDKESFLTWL

Kd: 7.9 µM
B1: recombinant TWF2, purified (BLI analyte) (natural protein)
chain: MAHQTGIHATEELKEFFAKARAGSVRLIKVVIEDEQLVLGASQEPVGRWDQDYDRAVLPLLDAQQPCYLLYRLDSQNAQGFEWLFLAWSPDNSPVRLKMLYAATRATVKKEFGGGHIKDELFGTVKDDLSFAGYQKHLSSCAAPAPLTSAERELQQIRINEVKTEISVESKHQTLQGLAFPLQPEAQRALQQLKQKMVNYIQMKLDLERETIELVHTEPTDVAQLPSRVPRDAARYHFFLYKHTHEGDPLESVVFIYSMPGYKCSIKERMLYSSCKSRLLDSVEQDFHLEIAKKIEIGDGAELTAEFLYDEVHPKQHAFKQAFAKPKGPGGKRGHKRLIRGPGENGDDS
